The values below come from paper PMC5173139, “Dual inhibition of ErbB1 and ErbB2 in cancer by recombinant human prolidase mutant hPEPD-G278D” (Oncotarget, 2016).

Where a chain is given by its changes, count along the chain named. In names and notes the source's numbering stands.

For one experiment, the target named is ErbB2 (Homo sapiens) (UniProt P04626). The note with it: cited from earlier work.
In a further experiment the target is ErbB1 ECD (Homo sapiens) (UniProt P00533). The following applies: cited from earlier work.
The target of experiment [1] is human ErbB1 mutant lacking ECD subdomain 3 (aa #311-480) (human) (UniProt P00533). Put plainly: ELISA; as a1 but with lysates of CHO-K1 cells transiently transfected for 24 h with wild-type ErbB1 or a subdomain deletion mutant; equal amounts of ErbB1 protein by immunoblot densitometry. (In general: An ELISA detects its analyte on a solid surface through an enzyme-linked reagent.)

Experiment [2] has as its target human ErbB1 mutant lacking ECD subdomain 1 (aa #1-165) (human) (UniProt P00533). The experiment is described as above.
The target of experiment [3] is human ErbB1 mutant lacking ECD subdomain 4 (aa #481-620) (human) (UniProt P00533). The experiment is described as above.
The target in experiment [4] is T1, human ErbB1, full length, stably expressed in CHO-K1 cells (CHO-K1/ErbB1) (human, UniProt P00533 25-1210).
T1 construct: human ErbB1 (EGF receptor), full length; source: CHO-K1, stably transfected (pCMV6-A-ERBB1-Puro, puromycin selection), in lysate
Put plainly: ELISA; wells coated with an antibody to the cytoplasmic tail of ErbB1; serially diluted His-tagged hPEPD or mutant plus CHO-K1/ErbB1 cell lysate (25 ug total protein), 37 C, 2 h; bound PEPD detected by biotin-conjugated anti-His antibody and streptavidin-HRP; CHO-K1 lysate as control. The following applies: one partner purified.

Consider prolidase (PEPD) (from UniProt P12955), for which the Kd (as a rule, the constant that tells how readily two partners part at equilibrium) with ErbB2 (Homo sapiens) was 7.3 nM; with ErbB1 ECD (Homo sapiens), 5000 nM.

B1: hPEPD-G278D, enzymatically inactive mutant of recombinant human prolidase (enzyme)
chain: MAAATGPSFWLGNETLKVPLALFALNRQRLCERLRKNPAVQAGSIVVLQGGEETQRYCTDTGVLFRQESFFHWAFGVTEPGCYGVIDVDTGKSTLFVPRLPASHATWMGKIHSKEHFKEKYAVDDVQYVDEIASVLTSQKPSVLLTLRGVNTDSGSVCREASFDGISKFEVNNTILHPEIVECRVFKTDMELEVLRYTNKISSEAHREVMKAVKVGMKEYELESLFEHYCYSRGGMRHSSYTCICGSGENSAVLHYGHAGAPNDRTIQNGDMCLFDMDGEYYCFASDITCSFPANGKFTADQKAVYEAVLRSSRAVMGAMKPGVWWPDMHRLADRIHLEELAHMGILSGSVDAMVQAHLGAVFMPHGLGHFLGIDVHDVGGYPEGVERIDEPGLRSLRTARHLQPGMVLTVEPGIYFIDHLLDEALADPARASFLNREVLQRFRGFGGVRIEEDVVVTDSGIELLTCVPRTVEEIEACMAGCDKAFTPFSGPK
Regarding B1, the fold reduction of binding affinity (Kd) against wild-type ErbB1 in experiment [1] was 7.4 fold; in experiment [2] it was 19.2 fold; in experiment [3] it was 1.4 fold.

B2: recombinant human prolidase (peptidase D), hPEPD (enzyme, UniProt P12955 1-493, looked up)
chain: B1 chain with D278G
notes: source: E. coli, as previously described [13, 17]; not shown: His tag, C-terminal, kept
As to B2, the Kd in experiment [4] was 17.7 nM.
